# Measurements reported in publication PMC3575409, “Identification of a Novel Protein-Protein Interaction Motif Mediating Interaction of GPCR-Associated Sorting Proteins with G Protein-Coupled Receptors” (PLoS ONE, 2013).
# B1: mutant 470–838: truncated GASP-2 corresponding to the C-terminal domain (protein)
# chain: KVSDRFRDAAEELNASSRPQTWDEVTVEFKPGLFHGVGFRSTSPFGIPEEASEMLEAKPKNLELSPEGEEQESLLQPDQPSPEFTFQYDPSYRSVREIREHLRARESAESESWSCSCIQCELKIGSEEFEEFLLLMDKIRDPFIHEISKIAMGMRSASQFTRDFIRDSGVVSLIETLLNYPSSRVRTSFLENMIHMAPPYPNLNMIETFICQVCEETLAHSVDSLEQLTGIRMLRHLTMTIDYHTLIANYMSGFLSLLTTANARTKFHVLKMLLNLSENPAVAKKLFSAKALSIFVGLFNIEETNDNIQIVIKMFQNISNIIKSGKMSLIDDDFSLEPLISAFREFEELAKQLQAQIDNQNDPEVGQQS
# modifications: [35S]-methionine labelled
# B2: mutant 1025–1395: truncated mutant of GASP-1 corresponding to the conserved C-terminal domain (protein)
# chain: ICRSTCSVEQEPDPSRRPQSWEEVTVQFKPGPWGRVGFPSISPFRFPKEAASLFCEMFGGKPRNMVLSPEGEDQESLLQPDQPSPEFPFQYDPSYRSVQEIREHLRAKESTEPESSSCNCIQCELKIGSEEFEELLLLMEKIRDPFIHEISKIAMGMRSASQFTRDFIRDSGVVSLIETLLNYPSSRVRTSFLENMIRMAPPYPNLNIIQTYICKVCEETLAYSVDSPEQLSGIRMIRHLTTTTDYHTLVANYMSGFLSLLATGNAKTRFHVLKMLLNLSENLFMTKELLSAEAVSEFIGLFNREETNDNIQIVLAIFENIGNNIKKETVFSDDDFNIEPLISAFHKVEKFAKELQGKTDNQNDPEGDQEN
# modifications: [35S]-methionine labelled
# B3: GASP-3: member of the GASP family, two GASP motifs (protein)
# chain: MAGTKNKTRAQAKTEKKAAIQAKAGAEREATGVVRPVAKTRAKAKAKTGSKTDAVAEMKAVSKNKVVAETKEGALSEPKTLGKAMGDFTPKAGNESTSSTCKNEAGTDAWFWAGEEATINSWFWNGEEAGNSFSTKNDKPEIGAQVCAEELEPAAGADCKPRSGAEEEEEENVIGNWFWEGDDTSFDPNPKPVSRIVKPQPVYEINEKNRPKDWSEVTIWPNAPAVTPAVLGFRSQAPSEASPPSYIVLASAEENACSLPVATACRPSRNTRSCSQPIPECRFDSDPCIQTIDEIRRQIRIREVNGIKPFACPCKMECYMDSEEFEKLVSLLKSTTDPLIHKIARIAMGVHNVHPFAQEFINEVGVVTLIESLLSFPSPEMRKKTVITLNPPSGDERQRKIELHVKHMCKETMSFPLNSPGQQSGLKILGQLTTDFVHHYIVANYFSELFHLLSSGNCKTRNLVLKLLLNMSENPTAARDMINMKALAALKLIFNQKEAKANLVSGVAIFINIKEHIRKGSIVVVDHLSYNTLMAIFREVKEIIETM
# modifications: [35S]-methionine labelled
# B4: GASP-6: member of the second GASP subfamily, without GASP motif (protein)
# chain: MGYARKVGWVTAGLVIGAGACYCIYRLTRGRKQNKEKMAEGGSGDVDDAGDCSGARYNDWSDDDDDSNESKSIVWYPPWARIGTEAGTRARARARARATRARRAVQKRASPNSDDTVLSPQELQKVLCLVEMSEKPYILEAALIALGNNAAYAFNRDIIRDLGGLPIVAKILNTRDPIVKEKALIVLNNLSVNAENQRRLKVYMNQVCDDTITSRLNSSVQLAGLRLLTNMTVTNEYQHMLANSISDFFRLFSAGNEETKLQVLKLLLNLAENPAMTRELLRAQVPSSLGSLFNKKENKEVILKLLVIFENINDNFKWEENEPTQNQFGEGSLFFFLKEFQVCADKVLGIESHHDFLVKVKVGKFMAKLAEHMFPKSQE
# modifications: [35S]-methionine labelled
# How the values were obtained:
# Type in all cases: binding
# GST-fused CALCR C-tail = experiment: GST-pull down, CALCR C-tail
# Method: (§1) cDNAs encoding the cytoplasmic C-tail of 14 GPCRs and 2 one-transmembrane receptors were cloned into the pGEX-2T prokaryotic expression vector downstream the GST sequence. […]
# (§2) GST-fusion proteins were immobilized on glutathione-coupled Sepharose beads (GE Healthcare) for 1 h at 4°C and incubated with [^35S]-labelled in vitro translated GASP proteins or their truncated or mutated forms in ice-cold binding buffer containing: 20 mM Tris-HCl pH 7.4, 150 mM NaCl, 1 mM EDTA, 1 mM DTT, 10% glycerol and 1% Triton X-100. […] The supernatants were then analyzed by SDS-PAGE, the gels were stained with Coomassie blue to visualize GST-fusion proteins, dried and analyzed using a Phosphor-imager (Personal Molecular Imager FX, Biorad) to visualize [^35S]-labelled GASPs. Quantification was performed with the Quantity One software (Biorad). GST-pull down quantification data were analyzed using GraphPad Prism 4.03 (GraphPad Software). Quantifications presented are means of at least three independent experiments.
# GST-fused M1 C-tail = experiment: GST-pull down, M1 C-tail; conditions: for interaction of truncated GASP-1 with M1 C-tail (words): compared with full-length GASP-1
# Source text: (§3) cDNAs encoding the cytoplasmic C-tail of 14 GPCRs and 2 one-transmembrane receptors were cloned into the pGEX-2T prokaryotic expression vector downstream the GST sequence. The following pGEX constructs were engineered: pGEX-DOR encoding residues 314–372 of the δ-opioid receptor (referring to Swiss-Prot accession number U10504), pGEX-MOR encoding residues 334–400 of the µ-opioid receptor (L29301), pGEX-KOR encoding residues 326–380 of the κ–opioid receptor (U17298), pGEX-ORL1 encoding residues 315–370 of the opioid receptor-like 1 (X77130), pGEX-M1 encoding residues 414–460 of the muscarinic M1 acetylcholine receptor (X52068), pGEX-M2 encoding residues 436–466 of the muscarinic M2 acetylcholine receptor (M16404), pGEX- ADRB1 encoding residues 373–477 of the β1 adrenergic receptor (J03019), pGEX-ADRB2 encoding residues 322–413 of the β2 adrenergic receptor (P07550), pGEX-CALCR encoding residues 407–490 of the calcitonin receptor (L00587), pGEX-CNR2 encoding residues 295–360 of the cannabinoid type 2 receptor (P34972), pGEX-5HT7 encoding residues 380–445 of the 5-hydroxytryptamine 7 receptor (L21195), pGEX-H2 encoding residues 284–349 of the histamine 2 receptor (S57565), pGEX-TXA2 encoding residues 304–343 of the α isoform of the thromboxane A2 receptor (D38081), pGEX-FZ4 encoding residues 493–537 of the frizzled 4 receptor (AB032417), pGEX-TGFβ encoding residues 805–849 of the type III transforming growth factor b receptor (L07594), pGEX-IGF1 encoding residues 1268–1367 of the insulin growth factor I receptor (X04434). Free GST was produced by using the pGEX-4T3 expression vector without insert. The same plasmid was used to clone the cDNA encoding a central domain of GASP-1, corresponding to amino acids 380 to 1073, downstream the GST sequence. All these plasmids were transformed into the Escherichia coli BL21 strain and expression was induced using 1mM of isopropylthiogalactoside for 2 h at 37°C. Bacteria were then pelleted, resuspended in PBS supplemented with cOmplete protease inhibitors (Roche), lysed at 1.5 kbar using a basic Z cell disrupter (constant system) and finally the lysates were cleared by centrifugation (10,000g, 15 min, 4°C).
# (§4) cDNAs encoding GASP-1 and GASP-2 were cloned into the pcDNA3 eukaryotic expression vectors. cDNAs encoding GASP-3, -6, -7, and -9 were subcloned into pcDNA3.1 vectors. All the clones were controlled by DNA sequencing. The in vitro production was performed by using the TNT Quick-coupled Transcription/Translation T7 kit (Promega) in presence of [^35S]-Methionine according to the instructions from the manufacturer.
# (§5) GST-fusion proteins were immobilized on glutathione-coupled Sepharose beads (GE Healthcare) for 1 h at 4°C and incubated with [^35S]-labelled in vitro translated GASP proteins or their truncated or mutated forms in ice-cold binding buffer containing: 20 mM Tris-HCl pH 7.4, 150 mM NaCl, 1 mM EDTA, 1 mM DTT, 10% glycerol and 1% Triton X-100. The mixture was incubated for 1 h at 4°C with gentle rocking. The beads were washed five times with the same ice-cold buffer, resuspended in 30 µl SDS-PAGE sample buffer, incubated 10 min at 65°C, and pelleted for 60 s at 3000 g. The supernatants were then analyzed by SDS-PAGE, the gels were stained with Coomassie blue to visualize GST-fusion proteins, dried and analyzed using a Phosphor-imager (Personal Molecular Imager FX, Biorad) to visualize [^35S]-labelled GASPs. Quantification was performed with the Quantity One software (Biorad). GST-pull down quantification data were analyzed using GraphPad Prism 4.03 (GraphPad Software). Quantifications presented are means of at least three independent experiments.
# GST-fused ADRB1 C-tail = experiment: GST-pull down, ADRB1 C-tail; conditions: for interaction of truncated GASP-1 with ADRB1 C-tail (words): compared with full-length GASP-1
# Source text: as §3, §4, §5
# GST-fused DOR C-tail = experiment: GST-pull down, DOR C-tail
# Source text: as §3, §4, §5
# [1] = test system: GST-fused TGFβ (type III transforming growth factor β receptor) C-tail; experiment: GST-pull down, TGFβ C-tail; conditions: for interaction with TGFβ C-tail: non-GPCR control
# Source text: as §3, §4, §5
# GST-fused GPCR C-tails = experiment: GST-pull down, GPCR C-tails; conditions: for interaction with GPCR C-tails: twelve GPCR C-tails
# Source text: as §3, §4
# as §5, with “experiments. […]” for “experiments.”
# GST-fused FZ4 C-tail = experiment: GST-pull down, FZ4 C-tail; conditions: strong = >10% of GASP input
# Method: as §1, §2
# [2] = test system: GST-fused IGF1 (insulin growth factor I receptor) C-tail; experiment: GST-pull down, IGF1 C-tail; conditions: for interaction with IGF1 C-tail: non-GPCR control
# Source text: as §3, §4, §5
# [3] = test system: GST-fused H2 (histamine H2 receptor) C-tail; experiment: GST-pull down, H2 C-tail; conditions: percent of [35S]-GASP input; pH 7.4, 1 h at 4°C; three independent experiments
# Method: as §1, §2
# GST-fused TXA2 C-tail = experiment: GST-pull down, TXA2 C-tail; conditions: percent of [35S]-GASP input; pH 7.4, 1 h at 4°C; three independent experiments
# Method: as §1, §2
# [4] = percent of [35S]-GASP input, controls
# [5] = percent of [35S]-GASP input, pH 7.4, 1 h at 4°C, three independent experiments
molecule,measurement,setting,value
B1,interaction of GASP-2 mutants with CALCR C-tail,GST-fused CALCR C-tail; compared to wild-type GASP-2,almost no interaction
same,interaction of GASP-2 mutants with M1 C-tail,GST-fused M1 C-tail; compared to wild-type GASP-2,almost no interaction
same,interaction of GASP-2 mutants with ADRB1 C-tail,GST-fused ADRB1 C-tail; compared to wild-type GASP-2,almost no interaction
B2,interaction of truncated GASP-1 with DOR C-tail,GST-fused DOR C-tail; compared with full-length GASP-1,interacted only weakly
same,interaction with DOR C-tail relative to full-length GASP-1,"GST-fused DOR C-tail; percent of full-length GASP-1 interaction, three independent experiments",25%
same,interaction of truncated GASP-1 with M1 C-tail (words),GST-fused M1 C-tail,did not display detectable interactions
same,interaction of truncated GASP-1 with M1 C-tail (words),GST-fused M1 C-tail; listed as 1025–1395,no significant interaction
same,interaction of truncated GASP-1 with ADRB1 C-tail (words),GST-fused ADRB1 C-tail,did not display detectable interactions
same,interaction of truncated GASP-1 with ADRB1 C-tail (words),GST-fused ADRB1 C-tail; listed as 1025–1395,no significant interaction
B3,interaction with TGFβ C-tail,[1],no interaction was detected
same,GASP input retained by GPCR C-tails,GST-fused GPCR C-tails; percent of GASP input,> 10%
same,interaction with GPCR C-tails,GST-fused GPCR C-tails,medium to strong interactions
same,interaction with FZ4 C-tail,GST-fused FZ4 C-tail,strong interaction
same,interaction with IGF1 C-tail,[2],no interaction was detected
B4,interaction with TGFβ C-tail,[1],No interaction was detected
same,GASP input retained by control TGFβ C-tail,[1]; [4],less than 1%
same,GASP input retained by DOR C-tail,GST-fused DOR C-tail; [5],around 2%
same,GASP input retained by H2 C-tail,[3],around 2%
same,GASP input retained by TXA2 C-tail,GST-fused TXA2 C-tail,around 2%
same,GASP input retained by CALCR C-tail,GST-fused CALCR C-tail; [5],around 2%
same,interaction with GPCR C-tails,GST-fused GPCR C-tails,very weak interactions
same,GASP input retained by M1 C-tail,GST-fused M1 C-tail; [5],around 2%
same,GASP input retained by ADRB1 C-tail,GST-fused ADRB1 C-tail; [5],around 2%
same,interaction with IGF1 C-tail,[2],No interaction was detected
same,GASP input retained by control IGF1 C-tail,[2]; [4],less than 1%
